Measured values as given in patent US9175053B2, “Chemical preparation of ubiquitin thioesters and modifications thereof” (BEN-GURION UNIVERSITY OF THE NEGEV RESEARCH AND DEVELOPMENT …, priority 2010, dated 2015).
Entries after “also recorded” stand apart in the source; their conditions may differ.

Biological target: T1, recombinant human ubiquitin C-terminal hydrolase L3 (UCH-L3) (Homo sapiens, UniProt P15374)
T1 construct: purchased Aldrich
T1 sequence (P15374 1-230): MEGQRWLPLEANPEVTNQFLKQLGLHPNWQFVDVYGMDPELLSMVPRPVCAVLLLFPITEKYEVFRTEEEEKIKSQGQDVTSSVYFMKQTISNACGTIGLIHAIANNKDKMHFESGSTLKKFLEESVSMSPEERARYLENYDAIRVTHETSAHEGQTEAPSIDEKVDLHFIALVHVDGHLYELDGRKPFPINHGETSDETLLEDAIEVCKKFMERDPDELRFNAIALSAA
Assay: Enzymatic cleavage of isopeptide by ubiquitin C-terminal hydrolase UCH-L3
Format: biochemical
Conditions: ~100 μM peptide, 12 hours at 37° C., Tris/NaCl/DTT buffer
Protocol: Purified peptide 8 was dissolved in 482 μL of assay buffer (50 mM Tris, 150 mM NaCl, 1 mM DTT, pH 7.5) to a final concentration of ˜100 μM and reacted with recombinant human ubiquitin C-terminal hydrolase L3 (UCH-L3, Aldrich). 10 μg of UCH-L3 in 15.5 μL of assay buffer containing 50 mM Tris, 150 mM NaCl, 12 mM DTT, pH 8.0 was incubated for 20 minutes at 25° C. To the reduced UCH-L3 was then added 8 in 187 μL. […] The reaction was analyzed using C-4 analytical RP-HPLC employing a gradient of 10-60% B for 30 minutes, in order to identify the hydrolysis.

8: α-synuclein(1-17) model peptide ubiquitylated with synthetic Ub-SR via mercaptolysine, then desulfurized (Scheme 6) [Peptide 8]
hydrolysis of the ubiquitylated peptide by UCH-L3 (RP-HPLC): UCH-L3 substrate; also recorded: complete hydrolysis
